Experimental data taken from patent US20220356210A1, “A SERIES OF INJECTABLE HYDROGELS SELF-ASSEMBLED FROM SHORT PEPTIDES FOR VARIOUS BIOMEDICAL APPLICATIONS” (Agency for Science, Technology and Research, priority 2019, published 2022).
Non-standard residues stand in square brackets, D forms with d. No end group written: not given here.

Experiments:
[1] = Gelation by vial tilting method; format: physicochemical; details: for Concentration to form the gel: in the presence of a salt; for Minimum concentration to form the gel: without the presence of a salt
Procedure: The peptide powder was dissolved in water or other aqueous solutions at the required concentrations. Alternatively, the required salt may be added after the peptide aqueous solution is prepared. The hydrogel was formed by mixing the peptide aqueous solution and salt (if required). For example, the solution was vortexed and then incubated to form hydrogel. The hydrogel formed may be stored as formed, or may be dried, for example by freeze drying. Alternatively, the hydrogel may be formed as required. The gelation time was determined by the vial tilting method. […] Rheology experiments were performed at room temperature using a control-strain rheometer (ARES G2, TA instruments). The rheometer is equipped with two sensitive force transducers for torque ranging from 0.05 μN·m to 200 mN·m. The peptide powder was dissolved in water at concentrations ranging from 1.0 to 2.0 (w/v) %. The solution was vortexed and then incubated to form hydrogel. The gel was placed onto parallel-plate geometry (8 mm in diameter). The dynamic storage modulus (G′) and loss modulus (G″) were examined as a function of frequency from 1 to 100 rad/s. The measurements were carried out at a strain amplitude (y) to ensure the linearity of viscoelasticity. Flow sweep (viscosity changes as a function of shear rate) was also performed to study shear thinning properties of hydrogels.

[2] = Rheology, G′ and G″ at frequency of 1 Hz; format: physicochemical
Procedure: The gelation time was determined by the vial tilting method. […] Rheology experiments were performed at room temperature using a control-strain rheometer (ARES G2, TA instruments). The rheometer is equipped with two sensitive force transducers for torque ranging from 0.05 μN·m to 200 mN·m. […] The solution was vortexed and then incubated to form hydrogel. The gel was placed onto parallel-plate geometry (8 mm in diameter). The dynamic storage modulus (G′) and loss modulus (G″) were examined as a function of frequency from 1 to 100 rad/s. The measurements were carried out at a strain amplitude (y) to ensure the linearity of viscoelasticity. Flow sweep (viscosity changes as a function of shear rate) was also performed to study shear thinning properties of hydrogels.

[3] = CD spectra of peptide amphiphiles; format: physicochemical; details: 1.0 mg/mL, with addition of salt (PBS pH 7.4), room temperature
Procedure: CD measurements were performed with a Jasco Model J-810 spectropolarimeter (Jasco, Great Dunmow, Essex, UK) using a quartz cuvette with 1 mm pathlength (Hellma, Germany). Spectra were recorded (average of 3 scans) from 240 to 190 nm at a scan speed of 50 nm/min. The ellipticity was derived from the formula: [θ]λ=(M/(N−1)×θλ)/(d×c), where θλ represents observed ellipticity (degrees) at wavelength λ, d represents pathlength (cm), c represents the concentration (g/mL), and [θ]λ represents residue ellipticity (deg cm^2 dmol^−1). Thermal scans were measured with Jasco Model J-810 spectropolarimeter equipped with a peltier temperature controller. The solution was allowed to reach equilibrium for 10 min at room temperature prior to testing.

[4] = Stability of peptide hydrogels in PBS
[5] = In vitro cytotoxicity, MTT assay; format: cell-based, human; details: human
Procedure: 1000 μL of HDFs or keratinocytes (10^5 cells per mL) were seeded onto the 12-well Transwell plates (Corning). IIK12 (1%) with various contents of antimicrobial peptides were dissolved in water and incubated at 37° C. overnight and 100 μL of gels were then transferred to the inserts of the Transwell plate. 1 mL of fresh medium was added into the inserts. The plates were incubated for 24 h before proceeding to MTT assay. It is noted that cells without any treatment and Mupirocin (GSK) were used as controls. The data were expressed as mean and standard deviation of three replicates and the tests were repeated 3 times.

[6] = keratitis mouse model; cited from earlier work
rat red blood cells = details: cited from earlier work
hMSCs = test: Live/Dead staining of hMSCs on or in peptide hydrogel (confocal); format: cell-based, human
Procedure: hMSCs were cultured in MSCGM medium (Lonza, U.S.A.) and incubated at 37° C., 5% CO2. The medium was changed every three days. The cells were harvested with PBS containing 0.025 (w/v) % trypsin and 0.01% EDTA, centrifuged and sub-cultured to passage 4 in MSCGM for 2D culture on the surface of hydrogels or 3D hydrogel encapsulation as described below.
The morphology and viability of hMSCs on the surface of hydrogels and inside 3D peptide hydrogel environment was observed by an inverted confocal laser scanning microscope (CLSM) (CLSM, Carl Zeiss, Germany). Live/Dead cell staining assay (Invitrogen) was used. Briefly, cells cultured on the surfaces of hydrogels in chambered cover glass (NUNC, Denmark) were washed with PBS and incubated in 0.5 mL of PBS containing dyes for 10 min, then visualized by CLSM at excitation wavelengths of 488 nm and 532 nm. All the observations were conducted under the same conditions. For the cells grown in 3D hydrogels, the constructs were cut, followed by the addition of staining agent. The gels were transferred to cover glass and then visualized by CLSM using the same method as described for the cells on the hydrogel surface.

[7] = antimicrobial peptide alone; cited from earlier work
MRSA = details: clinically isolated MRSA; cited from earlier work
A. baumannii = details: clinically isolated multidrug-resistant A. baumannii; cited from earlier work
VRE = details: clinically isolated VRE; cited from earlier work
P. aeruginosa = details: clinically isolated multidrug-resistant P. aeruginosa; cited from earlier work
C. neoformans = details: clinically isolated yeast C. neoformans; cited from earlier work
[8] = 1.5 wt %, gelation temp. R.T., H2O
[9] = 1.5 wt %, gelation temp. 37 °C, DMEM
[10] = 1.5 wt %, gelation temp. 37 °C, H2O
[11] = 2.0 wt %, gelation temp. 37 °C, H2O

IELEIRLK (IELEIRLK-NH2) [ILK8]
Concentration to form the gel [1]: 0.6 % w/v
Gelation in DI water at 37° C. (via tilting) ([1]; peptide conc. 1.0 %): overnight
Gelation in DI water at R.T. (via tilting), time ([1]; peptide conc. 1.0 %): 1 day days
Gelation in DI water at 37° C. (via tilting), time ([1]; peptide conc. 1.5 %): 15 min
Gelation in DI water at R.T. (via tilting), time ([1]; peptide conc. 1.5 %): 30 min
Gelation in DI water at 37° C. (via tilting), time ([1]; peptide conc. 2.0 %): 10 min
Gelation in DI water at R.T. (via tilting), time ([1]; peptide conc. 2.0 %): 20 min
Minimum concentration to form the gel [1]: 1.0 % w/v
G′ (storage modulus) [2, 8]: 332 Pa
G″ (loss modulus) [2, 8]: 40 Pa
Molecular ellipticity (θM) at the minimum point [3]: −21.4 deg.cm^2dmol^−1
Stability in PBS ([4]; peptide conc. 1.0 %): Yes
Stability in PBS ([4]; peptide conc. 1.5 %): Yes
Stability in PBS ([4]; peptide conc. 2.0 %): Yes

IEIEIRIK (IEIEIRIK-NH2) [IIK8]
Concentration to form the gel [1]: 0.6 % w/v
Gel appearance, gelation in DI water at R.T. ([1]; peptide conc. 1.0 %): clear
Gelation in DI water at 37° C. (via tilting) ([1]; peptide conc. 1.0 %): overnight
Gelation in DI water at R.T. (via tilting), time ([1]; peptide conc. 1.0 %): 1 day, days
Gelation in DI water at 37° C. (via tilting), time ([1]; peptide conc. 1.5 %): ≤ 15 min
Gelation in DI water at R.T. (via tilting), time ([1]; peptide conc. 1.5 %): 30 min
Gelation in DI water at 37° C. (via tilting), time ([1]; peptide conc. 1.5 %, listed as IEIEIRIK): 20 min
Gelation in DI water at 37° C. (via tilting), time ([1]; peptide conc. 2.0 %): 20 min
Gelation in DI water at R.T. (via tilting), time ([1]; peptide conc. 2.0 %): 30 min
Minimum concentration to form the gel [1]: 1.0 % w/v
G′ (storage modulus) [2, 9]: 1206 Pa
G″ (loss modulus) [2, 9]: 172 Pa
G′ (storage modulus) [2, 10]: 707 Pa
G″ (loss modulus) [2, 10]: 32 Pa
G′ (storage modulus) [2, 8]: 125 Pa
G″ (loss modulus) [2, 8]: 22 Pa
G′ (storage modulus) [2, 11]: 1139 Pa
G″ (loss modulus) [2, 11]: 90 Pa
Molecular ellipticity (θM) at the minimum point [3]: −28.9 deg.cm^2dmol^−1
Stability in PBS ([4]; peptide conc. 1.0 %): Yes
Stability in PBS ([4]; peptide conc. 1.5 %): Yes
Stability in PBS ([4]; peptide conc. 2.0 %): Yes

IRVE (IRVE-NH2)
Gelation in DI water at R.T. (via tilting) ([1]; peptide conc. 10 %): No

IRVEIK (IRVEIK-NH2)
Gelation in DI water at R.T. (via tilting) ([1]; peptide conc. 1.0 %): No
Gelation in DI water at R.T. (via tilting) ([1]; peptide conc. 2.0 %): No

IRIKIRIK-NH2 [IK8L, IRIKIRIK]
viability at 24 h, 1000 µg/mL ([5]; human dermal fibroblasts (HDFs) in 12-well Transwell plates): 22%
viability at 24 h, 125 µg/mL ([5]; human primary keratinocytes in 12-well Transwell plates): > 70%
Toxicity to the eyes [6]: without causing significant toxicity to the eyes
HC10 value (the lowest concentration that induced 10% or more hemolysis) (rat red blood cells): 2000 µg/mL

IRVKIEVEIRVK (IRVKIEVEIRVK-NH2) [IVK12]
Lowest concentration at which hydrogels self-assembled ([1]; aqueous solution): 0.6 (w/v) %
Gelation in DI water at 37° C. (via tilting) ([1]; peptide conc. 0.6, 1.0 %): Gel

IEVEIRVK-NH2 [IVK8, IEVEIRVK]
Viability of encapsulated cells (hMSCs; 1 day after encapsulation): the majority of encapsulated hMSCs remained viable
Viability of cells on the surface of peptide hydrogel (hMSCs; after 24 h attachment): the majority of the cells remained viable

IK8D: D-enantiomer of antimicrobial peptide IRIKIRIK ([dI][dR][dI][dK][dI][dR][dI][dK])
Peptide concentration at which a hydrogel forms [7]: 8 w/v %
MIC (MRSA): 3.9 mg/L
MIC (A. baumannii): 31.3 mg/L
MIC (VRE): 3.9 mg/L
MIC (P. aeruginosa): 15.6 mg/L
MIC (C. neoformans): 7.8 mg/L
HC10 value (the lowest concentration that induced 10% or more hemolysis) (rat red blood cells): 1750 µg/mL

IRVEIKVE (IRVEIKVE-NH2) [IRE8]
Gelation in DI water at R.T. (via tilting) ([1]; peptide conc. 1.0 %): No
Gel appearance, gelation in DI water at R.T. ([1]; peptide conc. 2.0 %): clear
Gelation in DI water at 37° C. (via tilting), time ([1]; peptide conc. 2.0 %): 1400 min
Gelation in DI water at R.T. (via tilting), time ([1]; peptide conc. 2.0 %): 4300 min
Gelation in DI water at R.T. (via tilting), time ([1]; peptide conc. 2.0 %, listed as IRVEIKVE): 3 days,

IRVEIRVEIRVE (IRVEIRVEIRVE-NH2) [IRV12]
Gelation in DI water at R.T. (via tilting) ([1]; peptide conc. 0.5 %): No
Gel appearance, gelation in DI water at 37° C. ([1]; peptide conc. 1.0, 2.0 %): cloudy
Gelation in DI water at 37° C. (via tilting) ([1]; peptide conc. 1.0, 2.0 %): Gel,

IRVEIEVK (IRVEIEVK-NH2) [IRK8]
Gel formation ([1]; concentrations up to 2%): no gel formation
Gelation in DI water at R.T. (via tilting) ([1]; peptide conc. 1.0 %): No
Gelation in DI water at R.T. (via tilting) ([1]; peptide conc. 2.0 %): No

IEVEIEVKIRVK (IEVEIEVKIRVK-NH2) [IEV12]
Gelation in DI water at R.T. (via tilting) ([1]; peptide conc. 0.5 %): No
Gelation in DI water at 37° C. (via tilting) ([1]; peptide conc. 1.0, 2.0 %): Gel
